{"source": "paper PMC2289705", "biological_target": "vimentin 2.tag (epitope-tagged Xenopus laevis vimentin 2, 57 kD) (X. laevis)", "experiment": "fractionation of oocytes into soluble and insoluble fractions", "data": [{"substance": "vimentin 2.tag (epitope-tagged Xenopus laevis vimentin 2, 57 kD) (natural protein)", "values": [{"measurement": "stoichiometry N", "result": 4}]}]}
